Test results reported in patent US20100137566A1.

What was measured:
[1] = biological target: GST-karyopherin α (karyopherin α expressed as a fusion protein with glutathione S-transferase), immobilized on glutathione Sepharose beads; assay: pull-down on GST-karyopherin α beads, PCR; against untreated extract
[2] = biological target: GST-karyopherin α (karyopherin α expressed as a fusion protein with glutathione S-transferase), immobilized on glutathione Sepharose beads; assay: pull-down on GST-karyopherin α beads, PCR, Phosphorimager; against untreated lysate
[3] = biological target: GST-karyopherin α (karyopherin α expressed as a fusion protein with glutathione S-transferase), immobilized on glutathione Sepharose beads; assay: pull-down on GST-karyopherin α beads, PCR

How did the percent reduction of binding in the presence of 1 µM CNI-H0294 (small molecule) [1] turn out when “wild-type HIV-1NLHX pre-integration complexes” was run?
Its percent reduction of binding in the presence of 1 µM CNI-H0294 (small molecule) is 95%.

How did the percent reduction of binding in the presence of 1 µM CNI-H0294 (small molecule) [1] turn out when “HIV-1NLHX pre-integration complexes that lack Vpr (MA NLS+ Vpr-)” was run?
Its percent reduction of binding in the presence of 1 µM CNI-H0294 (small molecule) is 95%.

Which results are given for HIV-1RF pre-integration complexes?
fold reduction of binding in the presence of 0.1 µM CNI-H0294 (small molecule) [2]: 8 fold; fold reduction of binding in the presence of 1 µM CNI-H0294 (small molecule) [2]: 25 fold

How did the binding as percent of that of MA NLS+ complexes (% of MA NLS+ complexes) [3] turn out when “HIV-1NLHX pre-integration complexes with mutated MA NLS (MA NLS- Vpr+)” was run?
Its binding as percent of that of MA NLS+ complexes (% of MA NLS+ complexes) is 1 to 5.
